Reference: US20100015126A1, “Methods of Binding of Cross-Beta Structures By Chaperones” (priority 2006, published 2010)

Target: T1, BiP-Sepharose (Homo sapiens, UniProt P11021)
T1 construct: The human BiP gene except the signal peptide encoding region was obtained from Geneart (Germany); linker […]; made in house; host or cells: HEK 293E cells, transient transfection, PABC674 vector; secreted into the medium
Experiment: BiP-Sepharose extraction of proteins from patient plasma, serum, synovial fluid and mass-spectrometric identification
Assay type: binding
Method: BiP was coated on CNBr-Sepharose (GE-Healthcare, Amersham Biosciences). Immobilization of BiP was performed essentially as described elsewhere in this application for NHS-Sepharose. CNBr-matrix was dissolved at 200 mg/ml in 1 mM HCl and treated the same as the NHS-matrix, except for an additional 5 minutes activation step in 1 mM HCl on a roller device before washing in this buffer. BiP was diluted in immobilization buffer (50 mM NaCl and 40 mM NaHCO3) to a concentration of 820 μg/ml. A total volume of 2 ml BiP solution (1640 μg BiP) was incubated with 360 mg beads. Negative control matrix was exposed to immobilization buffer, only. After overnight immobilization matrix was blocked with Tris and washed.
Six samples were incubated with the BiP-Sepharose, IgIV-Sepharose and the control-Sepharose: Normal pooled plasma, plasma of a patient I or of a patient II, with AL amyloidosis, serum of a patient III with RA (Rheumatoid Factor (RF) titer 682), control serum and synovial fluid of a patient IV with RA (RF titer 23). All samples were diluted 20× in HBS and applied to 200 μl beads in two volumes of 500 μl. One volume was incubated for 4 h at RT and supernatant was discarded after centrifugation (2 minutes at 1400 rpm). Subsequently, the second volume was applied to the same matrix and incubated overnight on a roller device at 4° C. […] To collect the eluates, the matrices were centrifuged and the two eluates were pooled for each sample.
Protein digests were desalted as described (Rappsilber et al., 2003), vacuum dried and dissolved in 2.5% formic acid.
For analysis of peptide mixtures, an Agilent 1100 HPLC system (Agilent Technologies) connected to a Thermo Finnigan LTQ-MS (Thermo Electron, Bremen, Germany) was used. Protein digests were injected on a trap column (Reprosil C18 RP (Dr Maisch, Germany), 20 mm×100 μm I.D.) at 5 μl/minute. Subsequently, the peptides were transferred with a split-reduced flow rate of 100 nL/minute solvent A (0.1 M acetic acid) on the analytical column (Reprosil C18 RP, 20 cm×50 μm I.D.). […] The column effluent was directly introduced into the ESI source of the mass spectrometer via a butt-connected nano-ESI emitter (New Objectives, Woburn, Mass.). The mass spectrometer was operated in the positive ion mode and parent ions were selected for fragmentation in data-dependent mode.
After mass spectrometric measurements, peak lists were generated using BioWorks software (Thermo Electron, Bremen, Germany). Protein identification was performed using Mascot software (www.matrixscience.com) by searching the IPIhuman database (version 3.24, downloaded from ftp://ftp.ebi.ac.uk/pub/databases/IPI/current) using the following settings: fully tryptic peptides, peptide tolerance 0.8 Da, MS/MS tolerance 0.9 Da, 1 missed cleavage allowed, carbamidomethyl (Cys) and oxidation (Met) as fixed and variable modification, respectively. The Scaffold software package (www.proteomesoftware.com) was used to parse the data and to filter peptides at a confidence level of 95%, allowing only protein identification with at least 2 peptides identified.

[1] = Sample B4: eluate of BiP-Sepharose contacted with RA patient III serum
[2] = Sample B3: eluate of BiP-Sepharose contacted with AL amyloidosis patient II plasma

T1 sequence (P11021 19-654): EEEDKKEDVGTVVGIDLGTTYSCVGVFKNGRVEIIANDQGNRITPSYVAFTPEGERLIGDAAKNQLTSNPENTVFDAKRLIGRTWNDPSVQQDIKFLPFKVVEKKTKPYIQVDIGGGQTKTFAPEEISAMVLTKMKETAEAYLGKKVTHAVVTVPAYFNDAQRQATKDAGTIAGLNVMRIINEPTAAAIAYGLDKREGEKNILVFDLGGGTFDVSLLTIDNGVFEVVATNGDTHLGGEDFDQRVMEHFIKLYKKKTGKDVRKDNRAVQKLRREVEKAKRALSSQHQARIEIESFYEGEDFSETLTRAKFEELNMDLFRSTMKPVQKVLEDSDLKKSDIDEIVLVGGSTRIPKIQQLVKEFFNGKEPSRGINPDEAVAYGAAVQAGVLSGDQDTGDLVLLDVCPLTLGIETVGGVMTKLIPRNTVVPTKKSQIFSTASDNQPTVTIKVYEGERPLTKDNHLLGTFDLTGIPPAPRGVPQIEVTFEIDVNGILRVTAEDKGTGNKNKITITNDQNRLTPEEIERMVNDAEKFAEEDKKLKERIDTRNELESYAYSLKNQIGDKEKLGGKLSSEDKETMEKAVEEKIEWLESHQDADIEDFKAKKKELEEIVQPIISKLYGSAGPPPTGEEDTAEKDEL

Molecule	# of peptides in sample A# [1]	# of peptides in sample A# [2]	# of peptides in sample A# (Sample B2: eluate of BiP-Sepharose contacted with AL amyloidosis patient I plasma)
Hypothetical protein DKFZp686I04196 (Fragment)/Immunoglobulin heavy constant gamma 2 (G2m marker)/Ig gamma-2 chain C region (protein) ASTKGPSVFPLAPCSRSTSESTAALGCLVKDYFPEPVTVSWNSGALTSGVHTFPAVLQSSGLYSLSSVVTVPSSNFGTQTYTCNVDHKPSNTKVDKTVERKCCVECPPCPAPPVAGPSVFLFPPKPKDTLMISRTPEVTCVVVDVSHEDPEVQFNWYVDGVEVHNAKTKPREEQFNSTFRVVSVLTVVHQDWLNGKEYKCKVSNKGLPAPIEKTISKTKGQPREPQVYTLPPSREEMTKNQVSLTCLVKGFYPSDISVEWESNGQPENNYKTTPPMLDSDGSFFLYSKLTVDKSRWQQGNVFSCSVMHEALHNHYTQKSLSLSPGK	14		
V1-3 protein (Fragment) (protein) QSALTQPRSVSGSPGQSVTISCTGTSSDVGGYNYVSWYQQHPGKAPKLMIYDVSKRPSGVPDRFSGSKSGNTASLTISGLQAEDEADYYCCSYAGSYTFH	1	2	
Dapper homolog 1 (hDPR1) (Heptacellular carcinoma novel gene 3)/Dapper, antagonist of beta-catenin, homolog 1 (Xenopus laevis) (protein) MKPSPAGTAKELEPPAPARGEQRTAEPEGRWREKGEADTERQRTRERQEATLAGLAELEYLRQRQELLVRGALRGAGGAGAAAPRAGELLGEAAQRSRLEEKFLEENILLLRKQLNCLRRRDAGLLNQLQELDKQISDLRLDVEKTSEEHLETDSRPSSGFYELSDGASGSLSNSSNSVFSECLSSCHSSTCFCSPLEATLSLSDGCPKSADLIGLLEYKEGHCEDQASGAVCRSLSTPQFNSLDVIADVNPKYQCDLVSKNGNDVYRYPSPLHAVAVQSPMFLLCLTGNPLREEDRLGNHASDICGGSELDAVKTDSSLPSPSSLWSASHPSSSKKMDGYILSLVQKKTHPVRTNKPRTSVNADPTKGLLRNGSVCVRAPGGVSQGNSVNLKNSKQACLPSGGIPSLNNGTFSPPKQWSKESKAEQAESKRVPLPEGCPSGAASDLQSKHLPKTAKPASQEHARCSAIGTGESPKESAQLSGASPKESPSRGPAPPQENKVVQPLKKMSQKNSLQGVPPATPPLLSTAFPVEERPALDFKSEGSSQSLEEAHLVKAQFIPGQQPSVRLHRGHRNMGVVKNSSLKHRGPALQGLENGLPTVREKTRAGSKKCRFPDDLDTNKKLKKASSKGRKSGGGPEAGVPGRPAGGGHRAGSRAHGHGREAVVAKPKHKRTDYRRWKSSAEISYEEALRRARRGRRENVGLYPAPVPLPYASPYAYVASDSEYSAECESLFHSTVVDTSEDEQSNYTTNCFGDSESSVSEGEFVGESTTTSDSEESGGLIWSQFVQTLPIQTVTAPDLHNHPAKTFVKIKASHNLKKKILRFRSGSLKLMTTV	2		
Immunoglobulin heavy constant gamma 3 (G3m marker)/Ig gamma-3 chain C region (Heavy chain disease protein, HDC) (protein) ASTKGPSVFPLAPCSRSTSGGTAALGCLVKDYFPEPVTVSWNSGALTSGVHTFPAVLQSSGLYSLSSVVTVPSSSLGTQTYTCNVNHKPSNTKVDKRVELKTPLGDTTHTCPRCPEPKSCDTPPPCPRCPEPKSCDTPPPCPRCPEPKSCDTPPPCPRCPAPELLGGPSVFLFPPKPKDTLMISRTPEVTCVVVDVSHEDPEVQFKWYVDGVEVHNAKTKPREEQYNSTFRVVSVLTVLHQDWLNGKEYKCKVSNKALPAPIEKTISKTKGQPREPQVYTLPPSREEMTKNQVSLTCLVKGFYPSDIAVEWESSGQPENNYNTTPPMLDSDGSFFLYSKLTVDKSRWQQGNIFSCSVMHEALHNRFTQKSLSLSPGK		2	2
CD5 antigen-like precursor (SP-alpha, CT-2, IgM-associated peptide)/CD5 molecule-like (protein) SPSGVRLVGGLHRCEGRVEVEQKGQWGTVCDDGWDIKDVAVLCRELGCGAASGTPSGILYEPPAEKEQKVLIQSVSCTGTEDTLAQCEQEEVYDCSHDEDAGASCENPESSFSPVPEGVRLADGPGHCKGRVEVKHQNQWYTVCQTGWSLRAAKVVCRQLGCGRAVLTQKRCNKHAYGRKPIWLSQMSCSGREATLQDCPSGPWGKNTCNHDEDTWVECEDPFDLRLVGGDNLCSGRLEVLHKGVWGSVCDDNWGEKEDQVVCKQLGCGKSLSPSFRDRKCYGPGVGRIWLDNVRCSGEEQSLEQCQHRFWGFHDCTHQEDVAVICSG	1		
Ig lambda chain V-III region SH (protein) SELTQDPAVSVALGQTVRITCQGDSLRSYYASWYQQKPGQAPVLVIYGKNNRPSGIPDRFSGSSSGNTASLTITGAQAEDEADYYCNSRDSS	2		
Immunoglobulin heavy constant mu/Full-length cDNA clone CS0DD006YL02 of Neuroblastoma of Homo sapiens (protein, UniProt P01871 1-474, looked up) Immunoglobulin heavy constant …: GSASAPTLFPLVSCENSPSDTSSVAVGCLAQDFLPDSITFSWKYKNNSDISSTRGFPSVLRGGKYAATSQVLLPSKDVMQGTDEHVVCKVQHPNGNKEKNVPLPVIAELPPKVSVFVPPRDGFFGNPRKSKLICQATGFSPRQIQVSWLREGKQVGSGVTTDQVQAEAKESGPTTYKVTSTLTIKESDWLGQSMFTCRVDHRGLTFQQNASSMCVPDQDTAIRVFAIPPSFASIFLTKSTKLTCLVTDLTTYDSVTISWTRQNGEAVKTHTNISESHPNATFSAVGEASICEDDWNSGERFTCTVTHTDLPSPLKQTISRPKGVALHRPDVYLLPPAREQLNLRESATITCLVTGFSPADVFVQWMQRGQPLSPEKYVTSAPMPEPQAPGRYFAHSILTVSEEEWNTGETYTCVVAHEALPNRVTERTVDKSTEGEVSADEEGFENLWATASTFIVLFLLSLFYSTTVTLFKVK	10	4	
CDNA FLJ90170 fis, clone MAMMA1000370, highly similar to Ig alpha-1 chain C region/Immunoglobulin heavy constant alpha 1 (protein, UniProt P01876 1-398, looked up) Immunoglobulin heavy constant …: ASPTSPKVFPLSLCSTQPDGNVVIACLVQGFFPQEPLSVTWSESGQGVTARNFPPSQDASGDLYTTSSQLTLPATQCLAGKSVTCHVKHYTNPSQDVTVPCPVPSTPPTPSPSTPPTPSPSCCHPRLSLHRPALEDLLLGSEANLTCTLTGLRDASGVTFTWTPSSGKSAVQGPPERDLCGCYSVSSVLPGCAEPWNHGKTFTCTAAYPESKTPLTATLSKSGNTFRPEVHLLPPPSEELALNELVTLTCLARGFSPKDVLVRWLQGSQELPREKYLTWASRQEPSQGTTTFAVTSILRVAAEDWKKGDTFSCMVGHEALPLAFTQKTIDRLADWQMPPPYVVLDLPQETLEEETPGANLWPTTITFLTLFLLSLFYSTALTVTSVRGPSGNREGPQY	17	2	
Complement factor H-related protein 3 precursor/Complement factor H-related 3 (FHR-3, H factor-like protein 3, DOWN16)/Complement factor H-related 3, isoform CRA_c (protein) QVKPCDFPDIKHGGLFHENMRRPYFPVAVGKYYSYYCDEHFETPSGSYWDYIHCTQNGWSPAVPCLRKCYFPYLENGYNQNYGRKFVQGNSTEVACHPGYGLPKAQTTVTCTEKGWSPTPRCIRVRTCSKSDIEIENGFISESSSIYILNKEIQYKCKPGYATADGNSSGSITCLQNGWSAQPICINSSEKCGPPPPISNGDTTSFLLKVYVPQSRVEYQCQPYYELQGSNYVTCSNGEWSEPPRCIHPCIITEENMNKNNIKLKGRSDRKYYAKTGDTIEFMCKLGYNANTSILSFQAVCREGIVEYPRCE		1	
